Test results: the supplement of paper PMC7877785
± gives the uncertainty stated by the source.

Assay: self-splicing fitness, log relative to wild type (ln ratio); higher = more splicing; Tetrahymena group I intron in knt gene, E. coli kanamycin selection, DiMSum; sequences stand for … in CUCUCU…GGAGGGAAAAGUUAUCAGGCAUGCACCUGGUAGCUAGUCUUUAAACCAAUAGAUUGCAUCGGUUUAAAAGGCAAGACCGUCAAAUUGCGGGAAAGGGGUCAACAGCCGUUCAGUACCAAGUCUCAGGGGAAACUUUGAGAUGGCCUUGCAAAGGGUAUGGUAAUAAGCUGACGGACAUGGUCCUAACCACGCAGCCAAGUCCUAAGUCAACAGAUCUUCUGUUGAUAUGGAUGCAGUUCACAGACUAAAUGUCGGUCGGGGAAGAUGUAUUCUUCUCAUAAGAUAUAGUCGGACCUCUCCUUAAUGGGAGCUAGCGGAUGAAGUGAUGCAACACUGGAGCCGCUGGGAACUAAUUUGUAUGCGAAAGUAUAUUGAUUAGUUUUGGAGUACUCGUGGUCG
Method in brief: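 DiMSum derived fitness as the error-weighted combination of fold changes across replicates, kanamycin versus no kanamycin, normalised to wild type. E. coli BL21(DE3) held the library, which randomised all eight P1ex-region intron nucleotides within the knt kanamycin-resistance gene on pET-22b(+). Six replicate transformations grew overnight at 37°C or 30°C on LB agar with or without 25 μg/mL kanamycin, also containing 100 μg/mL carbenicillin, 50 μM IPTG and 0.2% rhamnose, and pooled colonies were amplicon-sequenced on an Illumina HiSeq 2500.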

| Sequence | self-splicing fitness (ln) (30 °C) | self-splicing fitness (ln) (37 °C) |
| --- | --- | --- |
| AGGGAGCAAUAUUACGAUUG | -3.9 ± 0.17 | -3.41 ± 0.25 |
| AGGGAGCAAUAUUACGCAGC | -2.92 ± 0.47 | – |
| AGGGAGCAAUAUUACGCAUU | -3.7 ± 0.37 | – |
| AGGGAGCAAUAUUACGCCAG | -1.99 ± 0.24 | -2.14 ± 0.34 |
| AGGGAGCAAUAUUACGCUAG | -2.36 ± 0.31 | -0.612 ± 0.41 |
| AGGGAGCAAUAUUACGGCGU | -2.04 ± 0.12 | -1.05 ± 0.11 |
| AGGGAGCAAUAUUACGGUCG | -2.2 ± 0.31 | -2.83 ± 0.48 |
| AGGGAGCAAUAUUACGUCCA | -1.11 ± 0.27 | -0.389 ± 0.33 |
| AGGGAGCAAUAUUACGUCGU | -4.4 ± 0.46 | -2.46 ± 0.33 |
| AGGGAGCAAUAUUACGUCUG | – | -1.73 ± 0.36 |
| AGGGAGCAAUAUUACGUUAA | -3.09 ± 0.48 | -2.66 ± 0.41 |
| AGGGAGCAAUAUUACGUUCC | – | -2.63 ± 0.48 |
| AGGUAGCAAUAUUACGAAAC | -3.37 ± 0.035 | -1.85 ± 0.042 |
| AGGUAGCAAUAUUACGACAG | -1.6 ± 0.017 | -0.956 ± 0.034 |
| AGGUAGCAAUAUUACGACCU | -3.04 ± 0.031 | -2.42 ± 0.049 |
| AGGUAGCAAUAUUACGACUA | -0.0242 ± 0.016 | 0.141 ± 0.034 |
| AGGUAGCAAUAUUACGAGCC | -0.991 ± 0.021 | -0.862 ± 0.037 |
| AGGUAGCAAUAUUACGAUAG | -3.728 ± 0.035 | -2.72 ± 0.045 |
| AGGUAGCAAUAUUACGCACA | -0.467 ± 0.017 | 0.0312 ± 0.034 |
| AGGUAGCAAUAUUACGCACG | -0.782 ± 0.016 | -0.31 ± 0.035 |
| AGGUAGCAAUAUUACGCAUA | -1.71 ± 0.019 | -0.787 ± 0.034 |
| AGGUAGCAAUAUUACGCGUC | -2.763 ± 0.023 | -1.57 ± 0.037 |
| AGGUAGCAAUAUUACGCUCA | -0.609 ± 0.017 | -0.196 ± 0.035 |
| AGGUAGCAAUAUUACGCUUC | -3.52 ± 0.036 | -2.83 ± 0.054 |
| AGGUAGCAAUAUUACGGCUC | -0.672 ± 0.017 | -0.185 ± 0.036 |

| Sequence | self-splicing fitness (ln) (30 °C) | self-splicing fitness (ln) (37 °C) |
| --- | --- | --- |
| AGGUAGCAAUAUUACGGGCU | -0.801 ± 0.016 | -0.848 ± 0.035 |
| AGGUAGCAAUAUUACGGGGC | -3.748 ± 0.033 | -2.96 ± 0.043 |
| AGGUAGCAAUAUUACGUGGG | -3.908 ± 0.027 | -2.98 ± 0.039 |
| AGGUAGCAAUAUUACGUGUC | -3.313 ± 0.024 | -2.07 ± 0.037 |
| AGGUAGCAAUAUUACGUGUU | -2.894 ± 0.016 | -1.6 ± 0.034 |
| AGGUAGCAAUAUUACGUUUG | -3.578 ± 0.024 | -2.55 ± 0.039 |
| AGUAAGCAAUAUUACGAAGU | -1.75 ± 0.24 | -0.18 ± 0.27 |
| AGUAAGCAAUAUUACGACAU | -0.346 ± 0.013 | -0.078 ± 0.033 |
| AGUAAGCAAUAUUACGACCU | 0.329 ± 0.11 | 0.451 ± 0.14 |
| AGUAAGCAAUAUUACGACGC | -0.403 ± 0.15 | 0.541 ± 0.17 |
| AGUAAGCAAUAUUACGACUC | -1.88 ± 0.13 | -0.797 ± 0.14 |
| AGUAAGCAAUAUUACGAGGG | -3.06 ± 0.18 | -2.87 ± 0.28 |
| AGUAAGCAAUAUUACGAGUC | -2.96 ± 0.23 | -1.45 ± 0.17 |
| AGUAAGCAAUAUUACGAUGG | -3.99 ± 0.23 | -1.56 ± 0.26 |
| AGUAAGCAAUAUUACGGAUG | -3.1 ± 0.25 | -2.2 ± 0.26 |
| AGUAAGCAAUAUUACGGCAC | -2.04 ± 0.27 | -0.545 ± 0.2 |
| AGUAAGCAAUAUUACGGCUU | -0.592 ± 0.086 | -0.0743 ± 0.11 |
| AGUAAGCAAUAUUACGGGAA | -2.13 ± 0.16 | -2.12 ± 0.19 |
| AGUAAGCAAUAUUACGGGAG | -3.4 ± 0.2 | -2.43 ± 0.2 |
| AGUAAGCAAUAUUACGGGUU | -2.54 ± 0.18 | -2.68 ± 0.2 |
| AGUAAGCAAUAUUACGGUCA | -0.817 ± 0.074 | 0.0737 ± 0.081 |
| AGUAAGCAAUAUUACGGUCC | -0.766 ± 0.061 | -0.91 ± 0.08 |
| AGUAAGCAAUAUUACGGUCU | -0.432 ± 0.093 | -0.488 ± 0.11 |
| AGUAAGCAAUAUUACGUAUG | -2.94 ± 0.29 | -2.15 ± 0.24 |
| AGUAAGCAAUAUUACGUUUA | -2.84 ± 0.22 | -1.56 ± 0.18 |

| Sequence | self-splicing fitness (ln) (30 °C) | self-splicing fitness (ln) (37 °C) |
| --- | --- | --- |
| AGUAAGCAAUAUUACGUUUG | -4.38 ± 0.29 | -2.13 ± 0.21 |
| AGUCAGCAAUAUUACGACAA | -0.509 ± 0.098 | 0.177 ± 0.13 |
| AGUCAGCAAUAUUACGACAC | -0.0897 ± 0.065 | -0.358 ± 0.084 |
| AGUCAGCAAUAUUACGCCAU | -2.86 ± 0.25 | -1.1 ± 0.21 |
| AGUCAGCAAUAUUACGCCUU | -0.221 ± 0.11 | 0.301 ± 0.13 |
| AGUCAGCAAUAUUACGCGGA | -3.11 ± 0.26 | -1.79 ± 0.18 |
| AGUCAGCAAUAUUACGCUUU | -0.879 ± 0.063 | 0.0148 ± 0.087 |
| AGUCAGCAAUAUUACGGCCU | 0.247 ± 0.1 | 0.507 ± 0.13 |
| AGUCAGCAAUAUUACGGUCU | -0.851 ± 0.06 | -0.146 ± 0.068 |
| AGUCAGCAAUAUUACGUAGA | -2.08 ± 0.095 | -0.757 ± 0.098 |
| AGUCAGCAAUAUUACGUAGG | -3.1 ± 0.12 | -1.64 ± 0.14 |
| AGUCAGCAAUAUUACGUAGU | -1.21 ± 0.077 | -0.268 ± 0.12 |
| AGUCAGCAAUAUUACGUAUA | -2.69 ± 0.12 | -1.33 ± 0.1 |
| AGUCAGCAAUAUUACGUCUG | -2.2 ± 0.13 | -0.783 ± 0.12 |
| AGUCAGCAAUAUUACGUUGC | – | -2.83 ± 0.3 |
| AGUGAGCAAUAUUACGAAAC | -2.97 ± 0.38 | -1.2 ± 0.33 |
| AGUGAGCAAUAUUACGACAA | -2.34 ± 0.23 | -0.743 ± 0.18 |
| AGUGAGCAAUAUUACGAGUA | -3.6 ± 0.44 | -2.18 ± 0.32 |
| AGUGAGCAAUAUUACGCCGU | -2.39 ± 0.38 | – |
| AGUGAGCAAUAUUACGCCUC | -1.98 ± 0.24 | – |
| AGUGAGCAAUAUUACGCGCG | -1.28 ± 0.16 | -1.83 ± 0.22 |
| AGUGAGCAAUAUUACGCGUC | -1.51 ± 0.3 | -2.62 ± 0.45 |
| AGUGAGCAAUAUUACGCGUG | -4.06 ± 0.28 | -2.34 ± 0.15 |
| AGUGAGCAAUAUUACGCUUA | – | -1.98 ± 0.38 |
| AGUGAGCAAUAUUACGGAGU | -2.86 ± 0.3 | -3.09 ± 0.35 |

| Sequence | self-splicing fitness (ln) (30 °C) | self-splicing fitness (ln) (37 °C) |
| --- | --- | --- |
| AGUGAGCAAUAUUACGGCAU | -1.36 ± 0.12 | -0.254 ± 0.13 |
| AGUGAGCAAUAUUACGGCGA | -1.18 ± 0.14 | -2 ± 0.21 |
| AGUGAGCAAUAUUACGGGGC | – | -2.75 ± 0.29 |
| AGUGAGCAAUAUUACGGUAG | -3.02 ± 0.4 | – |
| AGUGAGCAAUAUUACGGUUG | -3.38 ± 0.27 | -1.92 ± 0.24 |
| AGUGAGCAAUAUUACGUCGA | -3.92 ± 0.24 | -2 ± 0.16 |
| AGUGAGCAAUAUUACGUUAC | -3.72 ± 0.47 | – |
| AGUGAGCAAUAUUACGUUGG | -4.42 ± 0.36 | -1.98 ± 0.26 |
| AGUGAGCAAUAUUACGUUUC | -3.41 ± 0.23 | -3.56 ± 0.32 |
| AGUUAGCAAUAUUACGAAGG | -4.03 ± 0.22 | -3.4 ± 0.28 |
| AGUUAGCAAUAUUACGACUA | -0.154 ± 0.18 | 0.0802 ± 0.17 |
| AGUUAGCAAUAUUACGAUCC | 0.593 ± 0.14 | -0.367 ± 0.15 |
| AGUUAGCAAUAUUACGCACA | 0.242 ± 0.2 | 0.395 ± 0.28 |
| AGUUAGCAAUAUUACGCAUU | -3.25 ± 0.25 | -0.806 ± 0.17 |
| AGUUAGCAAUAUUACGCGAA | -2.29 ± 0.15 | -1.1 ± 0.13 |
| AGUUAGCAAUAUUACGCUAU | -2.29 ± 0.17 | -1.21 ± 0.14 |
| AGUUAGCAAUAUUACGGGAA | -2.22 ± 0.19 | -1.05 ± 0.16 |
| AGUUAGCAAUAUUACGGGUC | -1.99 ± 0.33 | – |
| AGUUAGCAAUAUUACGGUCA | -1.08 ± 0.077 | -0.46 ± 0.085 |
| AGUUAGCAAUAUUACGUAGG | -4.63 ± 0.32 | – |
| AGUUAGCAAUAUUACGUAUC | -3.63 ± 0.2 | -2.25 ± 0.18 |
| AGUUAGCAAUAUUACGUCGA | -1.37 ± 0.12 | -1.02 ± 0.13 |
| AGUUAGCAAUAUUACGUCGC | -2.96 ± 0.39 | -0.924 ± 0.18 |
| AGUUAGCAAUAUUACGUGGU | -3.34 ± 0.15 | -3.35 ± 0.23 |
